Measurements from patent US20240115720A1, “ANTIBODY-PYRROLOBENZODIAZEPINE DERIVATIVE CONJUGATE” (MEMORIAL SLOAN KETTERING CANCER CENTER, priority 2021, published 2024).

What was measured:
[1] = system: DLL3-positive human small cell lung cancer cell line NCI-H82; assay: In vivo antitumor effect, NCI-H82 xenograft (Example 22-3); conditions: nude mice, 0.4 mg/kg intravenous, single dose, FIG. 28
From the text: (§1) Substantially the same protocol as in Example 17 was used.
(§2) The DLL3-positive human small cell lung cancer cell line NCI-H82 (ATCC) was suspended in Matrigel (Corning Inc.), and the cell suspension was subcutaneously inoculated at a dose of 1×10^6 cells to the right flank region of each female nude mouse. After the tumors were established, the mice were randomly grouped (6 mice per group). On the day of grouping, each of the 2 antibody-drug conjugates (H2-C8-A-3-Conjugate, H10-O18-A-3-Conjugate), the reference anti-DLL3 antibody-Conjugate (SC16LD6.5) or anti-LPS antibody-Conjugate was intravenously administered at a dose of 0.4 mg/kg to the tail of each mouse. The abscissa depicts the days after administration, and the ordinate depicts estimated tumor volume. The error range depicts a SE value.

[2] = system: DLL3-positive human small cell lung cancer cell line NCI-H510A; assay: In vivo antitumor effect, NCI-H510A xenograft (Example 17-3); conditions: BALB/c nude mice, 0.2 mg/kg intravenous, single dose on Day 15, FIG. 21
Protocol: The antitumor effects of the antibody-drug conjugates were evaluated using animal models derived from immunodeficient mice by the inoculation of DLL3-positive human tumor cell line cells. 4- to 5-week-old BALB/c nude mice (CAnN. Cg-Foxn1 [nu]/CrlCrlj [Foxn1nu/Foxn1nu], Charles River Laboratories Japan inc.) were acclimatized for 3 days or longer under SPF conditions before use in the experiment. The mice were fed with a sterilized solid diet (FR-2, Funabashi Farms Co., Ltd) and given sterilized tap water (which had been prepared by adding a 5 to 15 ppm sodium hypochlorite solution to tap water). The long diameter and short diameter of the inoculated tumor were measured twice a week using electronic digital calipers (CD-15CX, Mitutoyo Corp.), and the volume of the tumor was then calculated according to the following expression.
Tumor volume (mm^3=½×Long diameter (mm)×[Short diameter (mm)]^2
Each antibody-drug conjugate was diluted with ABS buffer (10 mM acetate buffer, 5% sorbitol, pH 5.5) (Nacalai Tesque, Inc.), and the dilution was intravenously administered at a dose shown in each study to the tail of each mouse. ABS buffer was administered in the same manner as above to a control group (vehicle group). Six mice per group were used in the experiment. The group with the over 3000 mm^3 estimated tumor volume were euthanized at that time. […]

[3] = system: DLL3-positive human small cell lung cancer cell line NCI-H510A; assay: In vivo antitumor effect, NCI-H510A xenograft (Example 22-1); conditions: nude mice, 0.2 mg/kg intravenous, single dose, FIG. 26
From the text: as §1
as §2, with “NCI-H510A” for “NCI-H82”, “2.3×10^6” for “1×10^6”, “(SC16LD6.5),” for “(SC16LD6.5)”, “0.2” for “0.4”

B1: SC16LD6.5: anti-DLL3 ADC: antibody hSC16.56 (SC16) conjugated with drug linker SG3249 by maleimide conjugation (conjugate, chains of the INN, looked up)
VH: QVQLVQSGAEVKKPGASVKVSCKASGYTFTNYGMNWVRQAPGQGLEWMGWINTYTGEPTYADDFKGRVTMTTDTSTSTAYMELRSLRSDDTAVYYCARIGDSSPSDYWGQGTLVTVSS
VL: EIVMTQSPATLSVSPGERATLSCKASQSVSNDVVWYQQKPGQAPRLLIYYASNRYTGIPARFSGSGSGTEFTLTISSLQSEDFAVYYCQQDYTSPWTFGQGTKLEIK
modifications: SG3249 PBD drug-linker (tesirine)
notes: anti-DLL3 ADC: antibody hSC16.56 (SC16) conjugated with drug linker SG3249 by maleimide conjugation
antitumor effect (estimated tumor volume) [1]: some tumor growth inhibition without tumor regression effect | antitumor effect (estimated tumor volume) [2]: some tumor growth inhibition without tumor regression effect | antitumor effect (estimated tumor volume) [3]: some tumor growth inhibition without tumor regression effect
